Blank lines part the entries; values can stand above or below the binder they belong to.
Key:
[1] = molecular target: T1, human ORP150-3x Flag with deletion of amino acids 673-752 (human, UniProt Q9Y4L1 33-999); assay: anti-FLAG capture ELISA and Western blot
T1 construct: Deletion mutant made by overlapping PCR, expressed in Flp-In CHO cells
T1 sequence: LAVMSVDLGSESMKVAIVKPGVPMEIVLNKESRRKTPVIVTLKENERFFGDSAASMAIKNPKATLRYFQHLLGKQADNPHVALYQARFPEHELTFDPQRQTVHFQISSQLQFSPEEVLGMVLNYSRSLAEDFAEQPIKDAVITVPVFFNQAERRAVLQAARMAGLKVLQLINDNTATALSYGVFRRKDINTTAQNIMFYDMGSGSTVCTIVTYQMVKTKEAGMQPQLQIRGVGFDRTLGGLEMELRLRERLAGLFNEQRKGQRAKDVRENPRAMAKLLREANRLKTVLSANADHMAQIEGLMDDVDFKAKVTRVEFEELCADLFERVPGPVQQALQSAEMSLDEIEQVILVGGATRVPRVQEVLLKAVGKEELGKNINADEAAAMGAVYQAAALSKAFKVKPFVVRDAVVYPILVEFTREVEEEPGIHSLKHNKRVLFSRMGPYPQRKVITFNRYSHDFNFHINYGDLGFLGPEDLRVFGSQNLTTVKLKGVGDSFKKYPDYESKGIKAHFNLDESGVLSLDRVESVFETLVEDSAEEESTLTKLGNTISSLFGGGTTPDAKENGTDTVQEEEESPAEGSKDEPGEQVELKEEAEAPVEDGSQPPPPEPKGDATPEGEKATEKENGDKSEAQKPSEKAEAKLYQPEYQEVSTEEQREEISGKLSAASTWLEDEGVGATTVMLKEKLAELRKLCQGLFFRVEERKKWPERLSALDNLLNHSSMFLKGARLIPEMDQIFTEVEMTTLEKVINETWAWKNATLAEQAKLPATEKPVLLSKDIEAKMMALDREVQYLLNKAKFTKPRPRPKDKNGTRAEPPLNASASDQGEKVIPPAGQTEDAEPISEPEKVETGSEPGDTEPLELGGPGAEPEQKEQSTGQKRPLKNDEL
Protocol: (§1) Binding of 5F4 to the ORP150 wild type or mutant proteins generated from the supernatant of the transfected cells were tested using ELISA assay by coating the surface with anti-FLAG antibody, allowing binding of the ORP150 proteins in the supernatant to the anti-FLAG antibody, and detecting binding of 5F4 to the ORP150 proteins.
(§2) Binding of 5F4 to the wild type or the mutant ORP150 proteins from the supernatant and cell lysates was also tested using Western blot assays by immunoprecipitation the ORP150 proteins from the supernatant or cell lysates using anti-FLAG antibody, and detecting binding of 5F4 to the ORP150 proteins on the Western blot. The anti-Flag M2 affinity gel (Sigma, Cat. No. A2220) was used to immuno-precipitate the recombinant human ORP150 from the supernatant and cell lysates of the transfected cells. The IP products were subjected to SDS-PAGE and then transferred onto nitrocellulose membrane for Western blotting. […] The blotting signal was detected with Immobilon Western-Chemiluminescent HRP Substrate kits (Millipore, Cat. No. WBKLS0500)
(§3) Based on the Western blotting with anti-FLAG antibody, all the deletion mutants of hORP150 were successfully expressed in Flp-In™ CHO Cells. […] To further characterize the epitope, additional mutant ORP150 proteins were generated. […]

[2] = molecular target: T2, human ORP150-3x Flag with deletion of amino acids 723-732 (human, UniProt Q9Y4L1 33-999); assay: anti-FLAG capture ELISA and Western blot
T2 sequence: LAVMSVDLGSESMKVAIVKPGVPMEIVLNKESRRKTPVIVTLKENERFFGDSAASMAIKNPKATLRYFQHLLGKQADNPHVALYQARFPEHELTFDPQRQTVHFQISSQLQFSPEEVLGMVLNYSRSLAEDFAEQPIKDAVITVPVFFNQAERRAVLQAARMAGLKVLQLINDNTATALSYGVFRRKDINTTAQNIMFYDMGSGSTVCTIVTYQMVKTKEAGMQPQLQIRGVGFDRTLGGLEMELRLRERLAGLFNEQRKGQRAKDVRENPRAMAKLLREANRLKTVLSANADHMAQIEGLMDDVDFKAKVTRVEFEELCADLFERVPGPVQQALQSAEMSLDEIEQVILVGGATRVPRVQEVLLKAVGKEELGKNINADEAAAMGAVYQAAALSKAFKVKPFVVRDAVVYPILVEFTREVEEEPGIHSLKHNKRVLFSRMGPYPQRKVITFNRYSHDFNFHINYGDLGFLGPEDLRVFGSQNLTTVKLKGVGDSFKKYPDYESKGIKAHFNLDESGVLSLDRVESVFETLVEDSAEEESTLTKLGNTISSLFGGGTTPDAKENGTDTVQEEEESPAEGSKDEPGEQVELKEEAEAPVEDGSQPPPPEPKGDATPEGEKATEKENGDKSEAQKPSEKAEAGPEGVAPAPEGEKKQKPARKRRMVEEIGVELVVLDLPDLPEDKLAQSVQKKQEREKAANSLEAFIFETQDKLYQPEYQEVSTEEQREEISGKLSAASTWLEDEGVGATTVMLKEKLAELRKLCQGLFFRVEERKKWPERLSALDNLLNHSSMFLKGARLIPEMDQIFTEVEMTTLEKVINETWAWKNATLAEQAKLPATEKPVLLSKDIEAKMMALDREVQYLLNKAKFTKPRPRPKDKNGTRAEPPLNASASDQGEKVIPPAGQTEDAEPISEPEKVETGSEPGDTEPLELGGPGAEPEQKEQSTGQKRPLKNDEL
Protocol: as §1, §2, §3

[3] = molecular target: T3, zinc-binding alcohol dehydrogenase domain containing 2 (UniProt Q8N4Q0 1-377, limits assumed); assay: Western blot
T3 construct: also called unrelated protein
T3 sequence (looked up): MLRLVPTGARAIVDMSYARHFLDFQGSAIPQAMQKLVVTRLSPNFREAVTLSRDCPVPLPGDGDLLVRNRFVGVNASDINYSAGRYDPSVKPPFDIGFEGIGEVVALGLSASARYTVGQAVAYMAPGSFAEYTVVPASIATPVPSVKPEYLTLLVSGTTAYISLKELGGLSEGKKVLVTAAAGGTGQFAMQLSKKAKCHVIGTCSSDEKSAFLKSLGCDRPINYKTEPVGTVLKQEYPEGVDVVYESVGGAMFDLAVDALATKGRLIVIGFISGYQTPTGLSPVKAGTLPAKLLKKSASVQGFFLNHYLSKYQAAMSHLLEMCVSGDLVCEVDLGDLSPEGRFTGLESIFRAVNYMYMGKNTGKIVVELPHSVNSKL
Protocol: Western blot was performed to confirm the binding specificity of antibody 3B6.1, 6A4.28 and 9A6.2. […] The amino acid sequences of the heavy and light chain variable region of antibody 3B6.1 (IgM, K), 6A4.28 (IgM, K) and 9A6.2 (IgM, K) are shown in FIGS. 3A and 3B, 4A and 4B, and 5A and 5B, respectively.

binding result [1]: no binding
binding result [2]: no binding
B1: monoclonal antibody 5F4 (antibody, mouse IgM, V domains shown)
VH: QIQLVQSGPELKKPGETVKISCKASDYTFTDYSMHWVKQAPGKGLKWMGWINTETGEPTYADDFKGRFAFPLETSASTAYLQINNLKNEDTATYFCARNHGYNLAYWGQGTLVTVSA
VL: DIVMTQSQKFMSTSVGDRVSLTCKSSQNVRTAVTWYQQKPGQSPKALIYLASNRHTGVPDRFTGSGSGTDFTLTISNVQSEDLADYFCLQHWNYPLTFGGGTKLEIK
notes: Mouse IgM, kappa, from a hybridoma; also called m5F4; murine 5F4

binding result [3]: no binding
B2: antibody 9A6.2 (antibody, mouse IgM, V domains shown)
VH: EVKLVESGGGLVKPGGSLKLSCAASGFTFSSYAMSWVRQTPEKRLEWVASISSGGSTYYPDSVKGRFTISRDNARNILYLQMSSLRSEDTAMYYCARGRGYYAYYFDYWGQGTTLTVSS
VL: ETTVTQSPASLSVATGEKVTIRCITSTDIDDDMNWYQQKPGEPPKLLISEGNTLRPGVPSRFSSSGYGTDFVFTIENTLSEDVADYYCLQSDNMPFTFGSGTKLEIK
notes: Mouse IgM, kappa
